Test [1] addresses full-length neuroligin 2 (NL2), wild type (mouse) (UniProt Q69ZK9). As to the kind of experiment: cryo-EM structure.
For test [2], the target named is NRX1β ECD (aa 81 - 311) labeled with Alexa Fluorophore 488 (mouse) (UniProt P0DI97). Description: fluorescence polarisation.

Several values for one entry are separate records, joined by “and”; a condition that tells them apart may be missing. Equal values may be shown once.

In general, stoichiometry N refers to a count of units in the complex or per binding partner. By Kd is commonly meant the free concentration of one partner at which half of the binding sites on the other are occupied at equilibrium, for simple one-to-one binding. A lower Kd goes with a tighter complex.

The substance “full-length neuroligin 2 (NL2), wild type (from UniProt Q69ZK9 15-836) (natural protein)” registered a stoichiometry N in test [1] of 2. Moreover, in test [2], the dissociation constant Kd is 6 µM.

In the case of “NL2 H279Y G282K mutant (from UniProt Q69ZK9 170-836) (natural protein)”, the Kd in test [2] stood at 0.3 µM.

With “full-length neurexin 1β (NRX1β), wild type (from UniProt P0DI97 47-468) (natural protein)”, the stoichiometry N (NRX1β per NL2 dimer) in test [1] was 2 and 1.

The record behind these values is article doi:10.1101/2024.10.16.618688.
